Results as given in the DeepSol protein solubility set.

Assay: soluble on expression in E. coli; label from the status in PepcDB or PDB records

Sequence | soluble on expression in E. coli
MFEKVRKIIAEQLGIEEDEITMESSFIDDLGADSLDIVELIMALEEEFDLEIPDSEAEKITTVGDVVEYIKNNS | not soluble
MFEPMMEMSDDAVIKVVGVGGGGGNAVEHMVRESIEGVEFMSINTDAQALRKTSVGTVIQIGGNITKGLGAGANPQVGRDAALEDKERIKEFLTGADMVFIAAGMGGGTGTGAAPVIAEVAKELGILTVAVVTKPFSFEGKKRLAFAEQGIEELSKHVDSLITIPNEKLLKVLGRGITLLEAFASANNVLKNAVQGIAELITRPGMINVDFADVRTVMSEMGHAMMGSGVARGEDRAEEAAEMAISSPLLEDIDLAGARGVLVNITAGLDMRLDEFETVGNTVKAFASDNATVVIGTSLDPDMADEIRVTVVATGIGNEKKPDITLVAGGKSKVAPVSAPVTSRVEEKAAQPLHERVEVKTQPAAAPSHSSASQSVAPKPEKESGYLDIPAFLRRQAD | not soluble
MFERLREDIQSVFHRDPAARNAFEVLTCYPGMHAIWLHRLGNALWRRDFKWLARLVSNFGRWLTGIEIHPGATIGRRFFIDHGMGIVIGETAEIGDDVTLYQGVTLGGTSWNKGKRHPTLENGVVVGAGAKVLGPFTVGAGAKIGSNAVVTKAVPAGATAVGIPGRIIVKSEDTEVEAKRKAMAEKIGFDAYGVSGDMPDPVARAIGQMLDHLQAVDERLEGMCGALTKMGSDYCAKELPALPEDDFSLEHHHHHH | soluble
MFFKKNLTTAAICAALSVAAFSAMATDSTDTELTIIGEYTPGACTPVVTGGGIVDYGKHHNSALNPTGKSNKLVQLGRKNSTLNITCTAPTLIAVTSKDNRQSTIVALNDTSYIEKAYDTLVDMKGTKNAFGLGSAPNGQKIGAASIGIDRSNGGIHAADDTGEIPVDLIQTDHWSAATPTWKASSNGAFCSLTSCSAIERGYSVAKTGELTPVAITAVTFPLLIDAAVNDNTILGSDETIKLDGNVTISVQYL | not soluble
MFFKQFYDNHLSQASYLVGCQRTGEAIIIDPVRDLSKYIEVADSEGLTITQATETHIHADFASGIRDVAKRLNANIYVSGEGEDALGYKNMPSKTQFVKHGDIIQVGNVKLEVLHTPGHTPESISFLLTDLGGGSSVPMGLFSGDFIFVGDIGRPDLLEKSVQIKGSTEISAKQMYESVQNIKNLPDYVQIWPGHGAGSPCGKALGAIPISTIGYEKINNWAFNEIDETKFIESLTSNQPAPPHHFAQMKQVNQFGMNLYQSYDVYPSLDNKRVAFDLRSKEAFHGGHTKGTINIPYNKNFINQIGWYLDFEKDIDLIGDKSTVEKAKHTLQLIGFDKVAGYRLPKSGISTQSVHSADMTGKEEHVLDVRNDEEWNNGHLDQAVNIPHGKLLNENIPFNKEDKIYVHCQSGVRSSIAVGILESKGFENVVNIREGYQDFPESLKLEHHHHHH | soluble
MFGGDVSAASVLPSHPISGSCDGFQAEGSDHHHSTMTPFQESQRNVYQILYGHPANDDFPRPITPLQITIPEGDASPTVPVSCGVVNGKMHLNLFMCPGIHQPCIEVGNDLLSPKQFTIRGDKERQKDWKASIRVGRSSLRTHMEAMTIDFYEHMNRCSGKCQSRNYVNAPSEEVLQARKSKRTSEAGQLKYEIENEMAGKEADNDDNRKSAKKARGRPRGSVNKPRQMVKMEPQDDRFFEEFFIDAPPLQSMSSNEEPTSSNKESNECTPFNDILNCLQNDPMNFWSQMQQTGVIGHFCDDIIVSAINLKQSVMDNPVTPTTANMLTRTAFALGIPPVVVHRVQSIERNAYQQRKHDEMFNDIQSTLAEEHSVKYQPRTSSSSQESLHTAREFTEEKVEELIDVCKYDDYPESECLPGPSHIQ | not soluble
MFGNLQGKFIIATPEMDDEYFDRTVIYICEHNDNGTIGVIINTPTDLSVLELLTRMDFQMAKPRIYTQDQMVLNGGPVNQDRGFIVHSKTDHEFTHSYKVTDDITLTTSGDVLDSFGTQTAPEKFIVCLGCSTWKPHQLEQEIAQNYWLLSEANNQTLFETSYLDRWVEANEMLGISGILAPAGRALEHHHHHH | soluble
MFKSQTAILPEAGPFALYTLLKVRQNHAHVLQALKALPALVEEINQNQPGAELTVSVAFSKGFWSHFEMASPPELIDFPELGEGETHAPSTDVDVLIHCHATRHDLLFYTLRKGISDIAQDIEIVDETYGFRYLDARDMTGFIDGTENPKAEKRAEVALVADGDFAGGSYVMVQRFVHNLPAWNRLNLAAQEKVIGRTKPDSVELENVPAASHVGRVDIKEEGKGLKIVRHSLPYGSVSGDHGLLFIAYCHTLHNFKTMLESMYGVTDGKTDQLLRFTKAVTGAYFFAPSQVMLQELTLKNQ | not soluble
MFKSVAKCDKVEKMLLGTFNLTLDNKNRISLPAKLRSFFDSSIVINRGFENCLEIRKPADFESYFQTFNNFPNTQKDTRTLKRLIFANANLVELDSANRILIPNNLISDAKLDKEIVLIGQFDHLEVWDKVQYEQYLASSESLETVAERMKDAK | soluble
MFKVTFAFENGSEVEAFANAGDNLLEVARGANVAIDAPCSGNGACGKCRVQLKGGELDSKKTLHISDEEFEKGWRLACMSKICADVEVLVPDIASAYKSRMKVADLSSKEEIAIFEKAKNQVEETGIQLRNSLEVVELQMTEPTLDDTMPDVERLTRALRKFMNLKRIRVPYAVLRKLPDVLRASKFSVKCVVRVTPDDMFVYDIFDAKEDVIMGGLAVDIGTTTVSAVIINMATGEILAKSSSGNGQIRYGADVINRIIETTKPGGIKKLQDAVIKETINPMIHEMCRSIHLPENQIYRMCVASNTTMNHLFAGINADYLRTEPYIPAFFKTNSLFASDVGIEINGDAHIIMAPNIGSYVGGDITAGTLVSMIWNRPEFSLFIDLGTNGELVFGNSDFMMSCACSAGPAFEGGDISCGMRATDGAIEACTIDKETMEPTYKVVGEPGTKPVGLCGSGIIDVISELFMTGIINPKGKFVREGKRVRHDHYGMGSYVIAFEEEAGSVKDVEITEVDIDNFIRAKGAIFSAIRTMLSSLDFDVSMIDDVYVAGGIGSGINMQNAVNIGMFPDVPLEKFHYIGNSSLTGAYLMLLSTQAEKKTYELASNMTYMELSTVPTYMDEFVGACFIPHTDASMFPNVHQRLEHHHHHH | not soluble
MFLKKETFTRGDASVALFELSGLQRIEYLEFIQKRTAKYDTDMDGTTEADKRVAYMQMALEINAWLVSRSLLNGDSSQDADTLYQSVQAKWSYEALDAGAESVLMLSGLSADKKDNASDSGNESEDMTPEKS | not soluble
MFLRYMRRRGSGEDHEEEPRGVTVIATKVAENSKNPRRYSLVHQASCETQHHKGIRRQNTIQHRKQLTDQMRCQKILQQLNDEGIEVIFTANDVTPIEFSIILTSTDPTLSNFVSDILQNMSSAKVQICHVETRGNEASHDVLLACKATKNQLIHSAELLTQNHVALTKFSIFAKKLSDEKNQSQIWFPRHISELDQCSKCITKYEPTTDPRHPGHGDVAYIARRKFLNDQALEFKFGDEIGYVDYTEEEHATWKAVYEKLGDLHLSHTCAVYRQNLKILQEEKVLTADRIPQIRDVNKFLQKKTGFELRPCSGLLSARDFLASLAFRVFQTTTYLRHHKSPHHSPEPDLIHELLGHVPMFSDPLLAQMSQDIGLMSLGASDEHIEKLSTVYWFIVEFGLCKEDGKLKAIGAGLLSAYGELMHACSDAPEHKDFDPAVTAVQKYEDDDYQPLYFVADSIHDALAKLRKYASSMDRPFSVVYDPFTKSIEAIESSADLEKAFSRLSNDLSAITHAADRMKISITM | not soluble
MFMEVSLTSLPAHVMNALDAIWEGSIADSLESETLEFKEDPSCAGRGKQHGNPQAALIEKLIDEAVCLANGDAGTGHIVVGIKDKIGGPEAFTGTTFDTEKIAKKIFDGTRPNLRPEVHEVRYQNNRLIVIYIPEALSLYSRSKGQTSKRVGSHCEPLSEEQRRAIAATRAHADYSNGISEFNVDDIAADTIQEVRRLLKTKRAQSGIDTSLPTTTNGLLRELGLIDNYGALKRAGAILLLPAPEGQLSIRHFWRSFPGIDPEVTDYNQPLLIALSSLKRRITENANKEIKRIQFSDGQEIAVSAFPQTAVDEVVTNAIIHRDWRLSRPVVIDQSPQTLKVWSPGSLPVGVTPNRLLTTQSIPRNSRLMSAMRMLGLAEESSRGFDRIWAALLGSGRDIPDVHTEDTFVEVILHSGNPDESFIKALHELSLSFNPDMLHSVNTLIVLWHLWTSPVISLKQARVKTQTSSKEATELMFALESNGLLTQIHNTDEWFLSEKARKTTNYYQSETIPQSSVQTWVEEKLSSGSPISAAEIAESIGMPRPEITEILRNLRRAGKAHIDPSGPQRGSGTRWIKGT | not soluble
MFNKKMVAMAMTVPLVMGTLSTVSAVETKKQVKVEAYSPQKKAIEYLKGNANQYGLKPDLSDLQYISTTETPVASYVRFQQVVNGAPVFSNQITVTLNGEGKGVLAVSDYQPIKAVKQVTEKISEKDAIQKSMAYVGEASEQNLWAPTEKEFGYIIEEGIARPVYKVVVHSNNPFGAWETFIDAENGKLIKKVDINRKVEGTGKVFLPNPVVSSGSLAGLKDNNDADSTALTNQLKTVTLKGLDGTGFLIGEYVTISSKARTKSTNLQFNYTRANDSFEDVMSYYHIDTLQRYIQSLGFQNINNRSIKVNVNGTTADNSFYSPTTKALTFGTGGVDDAEDAGIIAHEYGHSIQDNQVPGFGSSAEGGAMGEGFGDFLGATYEDAVSTTGYGKACVGEWDAAAYSSSDPTCLRRLDTNKVYPKDMKNQVHADGEIWSQGQYEMAQAFGRDVATKIILQSHWSLTPNSKFSDGAKAIKQADALLYGGQHAADIDRIWAARGISTN | not soluble
MFNNNDFKDYRKLLGFGSQNAFKEFLGAKDIQPCVDFNDLNALKKRLIEIFSAINSIYCFKYNEYELECFFKNSIERVFSKIVDTHIIYKLNNQGRRPEEVCFSWMRGFLVAEFFKDFIACLFSAQKETIKFFGGDNFENIESFKRSPKADFLLDNHLLLEVQSDFQGINDIKEHKVLEAKRRLITDKVPTIVVHFDLFNGQVACVEISKIKDNDLNWITRQQMEGQSVFNISQNFFDYKITEIPNKPLS | not soluble
MFPNSILGHPPFTPNHQQHNNFFTLSPTVYSHQQLIDAQFNFQNADLSRAVSLQQLTYGNVSPIQTSASPLFRGRKRLSDEKNLPLDGKRQRFHSPHQEPTVVNQIVPLSGERRYSMPPLFHTHYVPDIVRCVPPFREIAFLEPREITLPEAKDKLSQQILELFETCQQQISDLKKKELCRTQLQREIQLLFPQSRLFLVGSSLNGFGTRSSDGDLCLVVKEEPCFFQVNQKTEARHILTLVHKHFCTRLSGYIERPQLIRAKVPIVKFRDKVSCVEFDLNVNNIVGIRNTFLLRTYAYLENRVRPLVLVIKKWASHHQINDASRGTLSSYSLVLMVLHYLQTLPEPILPSLQKIYPESFSPAIQLHLVHQAPCNVPPYLSKNESNLGDLLLGFLKYYATEFDWNSQMISVREAKAIPRPDGIEWRNKYICVEEPFDGTNTARAVHEKQKFDMIKDQFLKSWHRLKNKRDLNSILPVRAA | not soluble
MFPYYQRQCPTGSVPYTIKAGDTLAAIARIYGTTVQDIINANPDIDPYYLRVGQQICIPLTMQIYPSCPTTNYYVVRPEDTLESIAAYFNITPQQLLYSNYGIDPTDLYVDQILCIPVAPPPVTVNVNVAERTLTVYRDGRIYRTYRIALENPASPIPRGTFTVLNKQVDPGVEMGARWIGLSEAGFGIHGTNTPEFIDVVSTGNSIVMSNEDVSELFNLVPVGTIVTIS | soluble
MFQKLLAFLTVVVFVSAAGNSCKIGKVINKPVIDGTPVYWPASWNETQPAPQLEKEQSCSWYVTIPRGYYAKLIISGKTTDKDSRFQTVDSAGNLIQTTHEKMVPYYFPASKFTLAVSNEGSATFAFKVVWWPLPTEKYVDIVASIGQVINVTETVVAMEYAAPGGITLLTFPEDLKNYNSLRSTLIYDGSSLTSATYVSNLFLLNQSKKQWTSSQDGIVVVNVEASRSMNKLLIQGSVYLAGIDEIVELHPQPNSIYNGTVNAGAHMSSLVAVSDLELQMIDVQMKDDSTVSVYYGSPDAFTLDKTYTGAELKKALPLPFGGYFVQFVVSSGKAVFTFKS | not soluble
